Data published in the RNAGym collection of RNA variant scans (doi:10.7554/elife.90254).

B1: LINE1-mini (parent)
chain: GGCAGAGCUCAACACAGCGUGGCAAAGUGGCUGUGGCUAGACUGCC

Variants of: B1
Assay: self-cleavage, relative activity (ratio to wild type); higher = more cleavage; in vitro, sequencing; the parent is a self-cleaving ribozyme

Variant	self-cleavage
G19U A26C	0.61
G19U A26U	0.56
U20A G44C	0.16
U20A G44U	0.2
U20A G44A	0.51
U20G G33U	0.08
U20G G33A	0.09
U20G G33C	0.06
U20G C31U	0.11
U20G C31A	0.07
U20G C31G	0.04
U20C U38A	0.19
U20C U38G	0.01
U20C U38C	0.22
U20C U32C	0.05
U20C U32A	0.05
U20C U32G	0.04
U20A G30A	0.62
U20A G30U	0.93
U20A G30C	0.68
U20A G27C	0.24
U20A G27A	0.83
U20A G27U	0.81
G19U C37A	0.05

Variant	self-cleavage
G19U C37G	0.02
G19U C37U	0.04
U20A A41C	0.05
U20A A41U	0.35
U20A A41G	0.36
U20A A24C	0.28
U20A A24U	0.62
U20A A24G	0.68
U20C G44U	0.14
U20C G44A	0.12
U20C G44C	0.09
U20A G33A	0.13
U20A G33U	0.07
U20A G33C	0.04
U20C G35U	0.1
U20C G35A	0.1
U20C G35C	0.03
U20A G40A	0.1
U20A G40C	0.06
U20A G40U	0.08
G19U	0.77
U20A U28G	0.28
U20A U28C	0.67
U20A U28A	0.55

Variant	self-cleavage
U20G G22A	0.55
U20G G22U	0.51
U20G G22C	0.41
U20G A24U	0.54
U20G A24C	0.28
U20G A24G	0.61
U20G C46G	0.45
U20G C46A	0.78
U20G C46U	0.44
G19U U34G	0.16
G19U U34A	0.13
G19U U34C	0.17
U20A G21A	0.76
U20A G21U	0.69
U20A G21C	0.39
G19U A25C	0.61
G19U A25G	0.49
G19U A25U	0.67
G19U G30U	1.11
G19U G30A	0.96
G19U G30C	0.59
U20A U32G	0.08
U20A U32C	0.09
U20A U32A	0.06

Variant	self-cleavage
U20A C46A	0.76
U20A C46U	0.65
U20A C46G	0.79
G19C G30C	1
G19C G30A	0.91
G19C G30U	0.54
G19C U34C	1.22
G19C U34G	0.14
G19C U34A	0.28
G19C U43G	0.02
G19C U43C	0.03
G19C U43A	0.02
U20G G21U	0.97
U20G G21A	0.69
U20G G21C	0.46
U20C C23G	0.44
U20C C23U	0.61
U20C C23A	0.49
U20C G30U	0.41
U20C G30A	0.45
U20C G30C	0.98
G19U A39C	0.06
G19U A39U	0.58
G19U A39G	0.06

Variant	self-cleavage
U20A C37U	0.05
U20A C37G	0.03
U20A C37A	0.05
U20C U43C	0.09
U20C U43G	0.01
U20C U43A	0.05
U20A G35U	0.08
U20A G35C	0.05
U20A G35A	0.1
U20A U38G	0.02
U20A U38C	0.41
U20A U38A	0.43
U20A A26G	0.91
U20A A26C	0.76
U20A A26U	0.91
U20G C37U	0.06
U20G C37A	0.02
U20G C37G	0.07
U20A G22U	0.91
U20A G22C	0.38
U20A G22A	0.55
U20C C42U	0.31
U20C C42G	0.04
U20C C42A	0.04

Variant	self-cleavage
G19C U20G	0.4
G19C U20C	0.61
G19C U20A	0.3
U20C C31G	0.07
U20C C31A	0.27
U20C C31U	0.39
U20C U34A	0.12
U20C U34G	0.22
U20C U34C	0.18
G19U G40C	0.05
G19U G40A	0.08
G19U G40U	0.1
U20A G29C	0.55
U20A G29A	0.51
U20A G29U	0.45
U20C G21U	0.45
U20C G21A	0.8
U20C G21C	0.39
G19C G29A	0.92
G19C G29U	0.54
G19C G29C	0.54
U20C	0.66
U20G	0.69
U20A	0.68

Variant	self-cleavage
U20G G30U	0.47
U20G G30C	0.3
U20G G30A	0.66
U20C C46G	0.47
U20C C46A	0.7
U20C C46U	0.42
U20C A24C	0.31
U20C A24U	0.67
U20C A24G	0.44
G19C U32A	0.16
G19C U32G	0.43
G19C U32C	0.14
G19U G35U	0.16
G19U G35A	0.12
G19U G35C	0.09
U20G A39C	0.13
U20G A39G	0.07
U20G A39U	0.56
U20C G33U	0.14
U20C G33C	0.07
U20C G33A	0.1
U20C A25U	1.02
U20C A25G	0.53
U20C A25C	0.75

Variant	self-cleavage
G19U U38A	0.38
G19U U38G	0.02
G19U U38C	0.3
U20C A26U	0.68
U20C A26G	0.36
U20C A26C	0.36
G19U G44C	0.31
G19U G44A	0.27
G19U G44U	0.28
U20G C23U	0.54
U20G C23G	0.38
U20G C23A	0.48
U20A U34G	0.25
U20A U34C	0.27
U20A U34A	0.08
G19U G27A	0.54
G19U G27U	0.58
G19U G27C	0.75
U20A A39G	0.06
U20A A39U	0.62
U20A A39C	0.08
G19U C23G	0.7
G19U C23U	1.03
G19U C23A	0.64

Variant	self-cleavage
G19U G33C	0.07
G19U G33A	0.18
G19U G33U	0.13
U20C G22C	0.19
U20C G22A	0.77
U20C G22U	0.4
G19U G29C	0.64
G19U G29A	0.93
G19U G29U	0.8
U20C A41U	0.46
U20C A41G	1
U20C A41C	0.08
U20G C45G	0.25
U20G C45A	0.29
U20G C45U	1.62
U20A G36C	0.07
U20A G36U	0.05
U20A G36A	0.26
U20C C45U	1.12
U20C C45A	0.34
U20C C45G	0.3
G19U A24C	0.73
G19U A24G	0.45
G19U A24U	0.81

Variant	self-cleavage
G19U C31A	0.37
G19U C31U	0.44
G19U C31G	0.05
U20G G29U	0.48
U20G G29C	0.35
U20G G29A	1.02
G19U C45A	0.43
G19U C45G	0.82
G19U C45U	1.38
G19U G36C	0.1
G19U G36U	0.04
G19U G36A	0.1
U20A C45A	0.77
U20A C45G	0.21
U20A C45U	1.4
U20A C42U	0.12
U20A C42A	0.11
U20A C42G	0.04
G19U U43C	0.07
G19U U43A	0.06
G19U U43G	0.02
G19U A41G	0.2
G19U A41U	0.41
G19U A41C	0.03

Variant	self-cleavage
G19U C46U	0.86
G19U C46A	1.08
G19U C46G	0.71
G19U C42U	0.3
G19U C42A	0.14
G19U C42G	0.07
U20G A26U	0.3
U20G A26C	0.47
U20G A26G	0.43
U20C A39G	0.06
U20C A39C	0.2
U20C A39U	0.37
G19C G44C	0.12
G19C G44U	0.15
G19C G44A	0.15
U20C C37U	0.06
U20C C37A	0.04
U20C C37G	0.23
G19C U28A	1.2
G19C U28C	0.6
G19C U28G	0.37
G19U U20A	0.86
G19U U20G	0.77
G19U U20C	0.76

Variant	self-cleavage
U20G A41U	0.42
U20G A41C	0.02
U20G A41G	0.19
U20G G27C	0.38
U20G G27A	0.72
U20G G27U	0.25
U20C G40A	0.09
U20C G40U	0.1
U20C G40C	0.06
G19C G27U	0.43
G19C G27C	0.61
G19C U38C	0.28
G19C U38A	0.05
G19C U38G	0.01
U20A U43C	0.13
U20A U43A	0.08
U20A C31A	0.09
U20A C31U	0.17
U20A C31G	0.08
U20G G35U	0.12
U20G G35C	0.11
U20G G35A	0.06
U20A A25U	0.77
U20A A25G	0.26

Variant	self-cleavage
U20A A25C	0.61
U20A C23U	0.8
U20A C23G	0.69
U20A C23A	1.15
G19U G21C	0.81
G19U G21U	0.58
G19U G21A	0.64
G19U U28A	0.63
G19U U28G	0.73
G19U U28C	0.67
G19C G35U	0.07
G19C G35A	0.17
G19C G35C	0.17
G19C G33C	0.12
G19C G33U	0.34
G19C G33A	0.15
U20C U28A	0.93
U20C U28G	0.93
U20C U28C	0.54
U20C G29U	0.4
U20C G29A	0.55
U20C G29C	0.31
G19U G22C	0.5
G19U G22A	0.78

Variant	self-cleavage
G19U G22U	0.63
G19C G36C	0.05
G19C G36A	0.09
G19C G36U	0.06
U20G C42G	0.14
U20G C42A	0.1
U20G C42U	0.17
U20C G27A	0.78
U20C G27C	0.28
U20C G27U	0.31
G19C G40A	0.06
G19C G40U	0.08
G19C G40C	0.06
G19U U32G	0.1
G19U U32A	0.09
G19U U32C	0.4
U20C G36C	0.07
U20C G36A	0.11
U20C G36U	0.15
U20G A25G	0.48
U20G A25C	0.19
U20G A25U	1.21
